In the supplement of paper PMC7877785:
± gives the uncertainty stated by the source.

Assay: self-splicing fitness, log relative to wild type (ln ratio); higher = more splicing; Tetrahymena group I intron in knt gene, E. coli kanamycin selection, DiMSum; sequences stand for … in CUCUCU…GGAGGGAAAAGUUAUCAGGCAUGCACCUGGUAGCUAGUCUUUAAACCAAUAGAUUGCAUCGGUUUAAAAGGCAAGACCGUCAAAUUGCGGGAAAGGGGUCAACAGCCGUUCAGUACCAAGUCUCAGGGGAAACUUUGAGAUGGCCUUGCAAAGGGUAUGGUAAUAAGCUGACGGACAUGGUCCUAACCACGCAGCCAAGUCCUAAGUCAACAGAUCUUCUGUUGAUAUGGAUGCAGUUCACAGACUAAAUGUCGGUCGGGGAAGAUGUAUUCUUCUCAUAAGAUAUAGUCGGACCUCUCCUUAAUGGGAGCUAGCGGAUGAAGUGAUGCAACACUGGAGCCGCUGGGAACUAAUUUGUAUGCGAAAGUAUAUUGAUUAGUUUUGGAGUACUCGUGGUCG
How it was run: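 Six replicate transformations of E. coli BL21(DE3) with a pET-22b(+) library were grown overnight at 37°C or 30°C. The library randomised all eight P1ex-region intron nucleotides, the intron lying in the knt kanamycin-resistance gene, and plates were LB agar with or without 25 μg/mL kanamycin plus 100 μg/mL carbenicillin, 50 μM IPTG and 0.2% rhamnose. Pooled colonies were amplicon-sequenced on an Illumina HiSeq 2500, and fitness is the DiMSum error-weighted combination of wild-type-normalised replicate fold changes, kanamycin versus none.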

Sequence	self-splicing fitness (ln) (30 °C)	self-splicing fitness (ln) (37 °C)
GGGGAGCAAUAUUACGUGUC	-3.68 ± 0.33	-2.19 ± 0.18
AACAAGCAAUAUUACGCUAA	-2.12 ± 0.11	-0.523 ± 0.091
AUCCAGCAAUAUUACGAUUA	-1.19 ± 0.094	-0.911 ± 0.1
CAGCAGCAAUAUUACGCUUU	-2.76 ± 0.14	-1.63 ± 0.12
CAGCAGCAAUAUUACGUUGA	-2.82 ± 0.16	-1.93 ± 0.18
AACCAGCAAUAUUACGCAAC	-2.78 ± 0.13	-0.698 ± 0.11
GUGAAGCAAUAUUACGCUAU	-1.95 ± 0.15	-0.0655 ± 0.15
UGAGAGCAAUAUUACGUGUU	-3.49 ± 0.25	-1.36 ± 0.14
UUAUAGCAAUAUUACGUCCU	-3.3 ± 0.34	-1.78 ± 0.27
GCCGAGCAAUAUUACGUCCC	-0.316 ± 0.14	-0.826 ± 0.22
UUAGAGCAAUAUUACGAUUC	-2.62 ± 0.25	-2.44 ± 0.35
ACGGAGCAAUAUUACGUUGC	–	-3.12 ± 0.4
CCCCAGCAAUAUUACGAACU	-5.09 ± 0.45	-2.29 ± 0.2
AGUAAGCAAUAUUACGCCGC	-1.03 ± 0.25	-2.95 ± 0.48
UACCAGCAAUAUUACGAUCA	-0.119 ± 0.07	-0.323 ± 0.09
UACUAGCAAUAUUACGUAUA	-2.31 ± 0.29	-1.19 ± 0.21
CUAUAGCAAUAUUACGCUUG	-2.62 ± 0.25	-2.14 ± 0.26
CAAUAGCAAUAUUACGCUGU	-3.13 ± 0.17	-2.07 ± 0.15
ACUGAGCAAUAUUACGACUC	-2.18 ± 0.16	-1.13 ± 0.2
CUUGAGCAAUAUUACGUGGG	-3.3 ± 0.38	-3.17 ± 0.27
UAAAAGCAAUAUUACGGAAC	-3.24 ± 0.27	-2.68 ± 0.4
AUGAAGCAAUAUUACGACAU	0.292 ± 0.012	0.49 ± 0.032
ACUCAGCAAUAUUACGCUCA	-0.566 ± 0.096	0.105 ± 0.14
UUACAGCAAUAUUACGAGCU	-3.55 ± 0.31	-3.12 ± 0.34
UCUUAGCAAUAUUACGAAGA	-3.02 ± 0.49	-2.64 ± 0.38
CUGGAGCAAUAUUACGCCUU	–	-1.6 ± 0.43

Sequence	self-splicing fitness (ln) (30 °C)	self-splicing fitness (ln) (37 °C)
UUCUAGCAAUAUUACGAAUC	–	-1.98 ± 0.25
GGCCAGCAAUAUUACGGGUG	-1.02 ± 0.049	-0.536 ± 0.065
UGAUAGCAAUAUUACGCUUG	-0.924 ± 0.091	0.0889 ± 0.14
AAGAAGCAAUAUUACGCGAA	-2.18 ± 0.1	-0.344 ± 0.093
GCGUAGCAAUAUUACGGUCU	-0.587 ± 0.091	-0.159 ± 0.1
AAUGAGCAAUAUUACGUGAA	-2.17 ± 0.16	-1.8 ± 0.27
GCCUAGCAAUAUUACGUCGG	-3.62 ± 0.19	-2.93 ± 0.21
CCUGAGCAAUAUUACGUUAG	-3.86 ± 0.17	-2.29 ± 0.12
CUGAAGCAAUAUUACGUGGG	-2.66 ± 0.095	-1.89 ± 0.11
ACGGAGCAAUAUUACGCGGG	-2.3 ± 0.18	-0.332 ± 0.15
ACAGAGCAAUAUUACGUGCG	-2.89 ± 0.29	-1.75 ± 0.28
CUGCAGCAAUAUUACGAAAA	–	-2.19 ± 0.31
CGGCAGCAAUAUUACGUGUU	-3.41 ± 0.13	-1.95 ± 0.13
CUGCAGCAAUAUUACGGGCC	–	-1.2 ± 0.5
UAAGAGCAAUAUUACGUUAG	-3.43 ± 0.24	-3.1 ± 0.27
CAAAAGCAAUAUUACGCAAU	-4.03 ± 0.3	-1.93 ± 0.24
AUUCAGCAAUAUUACGAACU	0.334 ± 0.13	0.543 ± 0.14
GUGAAGCAAUAUUACGCAAA	-2.12 ± 0.12	-1.52 ± 0.16
GCUGAGCAAUAUUACGCCGG	-1.99 ± 0.36	–
UCGCAGCAAUAUUACGGGUA	-1.78 ± 0.071	-1.08 ± 0.052
UAACAGCAAUAUUACGGCCA	-0.28 ± 0.066	-0.439 ± 0.071
GGUGAGCAAUAUUACGUAGA	-3.01 ± 0.33	-2.19 ± 0.29
GUGAAGCAAUAUUACGCAGA	-3.85 ± 0.25	-2.39 ± 0.25
GGAUAGCAAUAUUACGCAGU	-2.7 ± 0.18	-1 ± 0.12
GCCUAGCAAUAUUACGACGG	-3.6 ± 0.31	-2.37 ± 0.27
CAACAGCAAUAUUACGUGUU	-3.54 ± 0.11	-3.03 ± 0.15

Sequence	self-splicing fitness (ln) (30 °C)	self-splicing fitness (ln) (37 °C)
UACUAGCAAUAUUACGCGCG	-0.375 ± 0.12	-0.0222 ± 0.12
GCCUAGCAAUAUUACGAGGC	-4.1 ± 0.36	-1.77 ± 0.26
UGUGAGCAAUAUUACGAGAU	-3.75 ± 0.37	-2.53 ± 0.41
ACCCAGCAAUAUUACGCCGC	-3.12 ± 0.18	-2.37 ± 0.2
UACCAGCAAUAUUACGGGUU	-2.21 ± 0.085	-1.46 ± 0.1
UCCGAGCAAUAUUACGUCGU	-2.21 ± 0.16	-1.53 ± 0.18
CCGAAGCAAUAUUACGAGUU	-2.77 ± 0.1	-2.96 ± 0.17
AAAAAGCAAUAUUACGAACA	-0.675 ± 0.092	-0.407 ± 0.11
CGAUAGCAAUAUUACGCUCU	-0.961 ± 0.12	0.447 ± 0.12
GAUGAGCAAUAUUACGAGCC	-0.987 ± 0.31	-1.53 ± 0.41
GGUGAGCAAUAUUACGGAAC	-1.27 ± 0.21	-0.837 ± 0.24
CGUGAGCAAUAUUACGGGAU	-3.49 ± 0.22	-2.24 ± 0.21
CGCUAGCAAUAUUACGAAGG	-1.06 ± 0.098	-0.735 ± 0.13
UCAUAGCAAUAUUACGUCGG	-1.34 ± 0.12	-0.0833 ± 0.11
CAGGAGCAAUAUUACGGUUG	-1.89 ± 0.085	-0.54 ± 0.12
GCCUAGCAAUAUUACGGCAU	-3.27 ± 0.27	-0.94 ± 0.13
AAGGAGCAAUAUUACGUCGC	–	-1.49 ± 0.35
ACUGAGCAAUAUUACGCCAC	–	-2.31 ± 0.35
AGAUAGCAAUAUUACGUCUU	-2.52 ± 0.14	-2.07 ± 0.17
GUAGAGCAAUAUUACGGUCG	-2.63 ± 0.19	-1.8 ± 0.19
UAACAGCAAUAUUACGUAAU	-3.27 ± 0.14	-2.23 ± 0.14
UAACAGCAAUAUUACGGUUG	-0.966 ± 0.043	-1.04 ± 0.064
CUGAAGCAAUAUUACGAGCU	-3.42 ± 0.21	-2.84 ± 0.27
CAGCAGCAAUAUUACGACGU	-0.896 ± 0.076	-0.529 ± 0.079
GGUAAGCAAUAUUACGGAGG	–	-3.58 ± 0.42
AGCGAGCAAUAUUACGGGAG	-2.82 ± 0.2	-2 ± 0.29
